According to patent US6328728A, “Composition and method for enhancing electrotransport agent delivery” (Alza Corporation, priority 1997, dated 2001):

Assay: Hydrophobicity by hydrophobic interaction chromatography (HIC), phenyl Superose column (retention time, ta/tm)
Type: physicochemical
Settings: for HIC Retention Time / HIC Column Retention Time: 32° C.; for HIC Column Retention Time: pH 5.0, 4 mM piperazine-HCl
Description: The hydrophobicity of an agent (eg, an agent such as a polypeptide or protein in solution, as well as the relative increase or decrease thereof) is determined by passing the agent-containing solution through a chromatography column filled with a particular "hydrophobic interaction" bead material and measuring either (1) the time required for the agent to elute (ie, pass through) the column or (2) the volume of liquid (ie, the same liquid used in the agent-containing sample, but with the agent removed) required to be pumped through the column in order to elute the agent. For the purposes of the present invention, the hydrophobicity of an agent is defined in terms relative to the marker compound, N-acetyl tryptophanamide (sold by Sigma Chemical, St. Louis, Mo.), which has a somewhat moderate hydrophobicity. Hydrophobicity, as that term is used herein, is measured using a 5 mm diameter glass column having a length of 5 cm (ie, column volume of 1.0 mL) and packed with cross-linked agar beads having an average particle size of 13.5 μm. Examples of suitable hydrophobic bead materials include cross-linked agar gel beads (Superose 12) having hydrophobic ligands attached to the agar via chemically stable ether linkages ((Superose 12)--O--CH2 --CHOH--CH2 --O--R) such as alkyl-Superose wherein R is --CH2 --C(CH3)3 and phenyl-Superose wherein R is phenyl, both of which are sold in pre-packaged column form by Pharmacia Biotech, Inc. of Piscataway, N.J. Immediately downstream from the column is placed a flow cell which permits continuous UV absorbance measurements of the solution flowing out of the column. Suitable flow cells and UV absorbance detectors are sold by Perkin-Elmer Corp., Applied Biosystems, Foster City, Calif. Hydrophobicity measurements are conducted at 32° C. with the same buffer that is used in the electrotransport system which is used to deliver the agent (eg, transdermally) to the patient. The buffer strength used in the hydrophobicity measurements is 10 mM ionic strength. The term "certain hydrophobicity" as used herein, means that the time required for the agent to elute from the column, relative to the time required for N-acetyl tryptophanamide to elute, is as follows:
ta /tm >0.7, and preferably ta /tm >3
ta is the time at which the peak UV absorbance value is recorded for the beneficial agent in the flow cell, less the time required to initially fill the column with the agent-containing solution (ie, dead volume retention time); and
tm is the time at which the peak UV absorbance value is recorded for the N-acetyl tryptophanamide marker in the flow cell, less the time required to initially fill the column with the marker-containing solution (ie, dead volume retention time).
The above described measurement of agent hydrophobicity is substantially independent of column size and flow rate through the column.
One method of measuring the hydrophobicity of an agent such as a polypeptide or protein is by hydrophobic interaction chromatography (HIC). The principles and conditions associated with HIC are fully described in Protein Purification: Principles, High Resolution Methods, and Applications, Janson and Ryden, Eds., pp. 207-226 (1989), the pertinent portions of which are incorporated herein by reference. This method requires passing a composition through a hydrophobic interaction column and measuring the volume of solvent required for its complete elution. The hydrophobic sites on the agent are generally attracted to hydrophobic groups, such as aryl groups, affixed to beads placed within the column. A preferred HIC column material is phenyl-superose (Pharmacia, Sweden), a cross-linked polysaccharide which has been covalently modified to have pendant hydrophobic aryl groups. These pendant groups are similar to the hydrophobic or lipophilic species in the skin layers. Thus, this hydrophobic interaction column approximates, and is a good in vitro model for, an animal's skin layer as a barrier to transport of a polypeptide or protein. […]

[1] = pH 3.5, 10 mM sodium chloroacetate, TWEEN 20 0
[2] = pH 3.5, 10 mM sodium chloroacetate, TWEEN 20 1.5 mg/mL
[3] = pH 3.5, 10 mM sodium chloroacetate, TWEEN 20 2.66 mM
[4] = pH 3.5, 10 mM sodium chloroacetate, TWEEN 20 5.33 mM
[5] = pH 3.5, 10 mM sodium chloroacetate, TWEEN 20 6.66 mM
[6] = pH 3.5, 10 mM sodium chloroacetate, TWEEN 20 8.88 mM
[7] = pH 9.0, 10 mM sodium borate, TWEEN 20 0
[8] = pH 9.0, 10 mM sodium borate, TWEEN 20 1.5 mg/mL
[9] = pH 9.0, 10 mM sodium borate, TWEEN 20 2.66 mM
[10] = pH 9.0, 10 mM sodium borate, TWEEN 20 6.0 mg/mL
[11] = pH 9.0, 10 mM sodium borate, TWEEN 20 8.88 mM

Q: What does the source list for “Insulinotropin: the protein insulinotropin”?
A: HIC Retention Time [1]: 57.6 min; HIC Retention Time [2]: 25.6 min; HIC Retention Time [3]: 11.5 min; HIC Retention Time [4]: 6.1 min; HIC Retention Time [5]: 6.0 min; HIC Retention Time [6]: 4.4 min; HIC Retention Time, fractional change (% δ) [1]: 0; HIC Retention Time, fractional change (% δ) [2]: 0.60; HIC Retention Time, fractional change (% δ) [3]: 0.87; HIC Retention Time, fractional change (% δ) [4]: 0.97; HIC Retention Time, fractional change (% δ) [5]: 0.97; HIC Retention Time, fractional change (% δ) [6]: 1.00; HIC Retention Time [7]: 10.1 min; HIC Retention Time [8]: 9.4 min; HIC Retention Time [9]: 6.4 min; HIC Retention Time [10]: 4.8 min; HIC Retention Time [11]: 3.8 min; HIC Retention Time, fractional change (% δ) [7]: 0; HIC Retention Time, fractional change (% δ) [8]: 0.11; HIC Retention Time, fractional change (% δ) [9]: 0.59; HIC Retention Time, fractional change (% δ) [10]: 0.84; HIC Retention Time, fractional change (% δ) [11]: 1.00

Q: For Salmon Calcitonin [reference compound], which “HIC Column Retention Time” value (dodecyl sulfobetaine 0, calcitonin 0.076 mM) is on record?
A: 9.4 min

Q: And the “HIC Column Retention Time” value (dodecyl sulfobetaine 0.83 mM, calcitonin 0.076 mM)?
A: 12.4 min

Q: What about the “HIC Column Retention Time” value (dodecyl sulfobetaine 3.23 mM, calcitonin 0.074 mM) of the same substance?
A: 87.1 min

Q: What about the “HIC Column Retention Time” value (dodecyl sulfobetaine 6.25 mM, calcitonin 0.072 mM) of the same substance?
A: 64.1 min

Q: What about the “HIC Column Retention Time” value (dodecyl sulfobetaine 9.77 mM, calcitonin 0.069 mM) of the same substance?
A: 45.1 min

Q: What about the “HIC Column Retention Time” value (dodecyl sulfobetaine 18.4 mM, calcitonin 0.062 mM) of the same substance?
A: 28.8 min

Q: And the “HIC Column Retention Time” value (dodecyl sulfobetaine 26.4 mM, calcitonin 0.056 mM)?
A: 24.4 min
